This experiment has as its target NL63 trimer (human coronavirus NL63).

Take flACE2-Fc-WT (Fc fusion): the IC50 (commonly the midpoint of a concentration-inhibition curve) came to 52.7 nM.
trACE2-Fc-WT (Fc fusion): the IC50 was 100 nM.

These data come from US20250009854A1.
